We go through one molecule from PMC10411777, “Analytical sameness methodology for the evaluation of structural, physicochemical, and biological characteristics of Armlupeg: A pegfilgrastim biosimilar case study” (PLOS ONE, 2023).

By Kd is commonly meant the constant that tells how readily two partners part at equilibrium. High values mean a looser complex, low ones a tighter complex.

For the experiment, the target named is G-CSF receptor (UniProt Q99062 25-836). Kind of experiment: SPR; BIAcore T200; G-CSF receptor immobilised on a CM5 chip at 2000 RU by amine coupling; pegfilgrastim injected at seven concentrations from 0.08 to 5 nM; 1:1 binding model; KD from kinetics; triplicates for each batch. To be noted: both partners purified.
Sequence of G-CSF receptor (Q99062 25-836): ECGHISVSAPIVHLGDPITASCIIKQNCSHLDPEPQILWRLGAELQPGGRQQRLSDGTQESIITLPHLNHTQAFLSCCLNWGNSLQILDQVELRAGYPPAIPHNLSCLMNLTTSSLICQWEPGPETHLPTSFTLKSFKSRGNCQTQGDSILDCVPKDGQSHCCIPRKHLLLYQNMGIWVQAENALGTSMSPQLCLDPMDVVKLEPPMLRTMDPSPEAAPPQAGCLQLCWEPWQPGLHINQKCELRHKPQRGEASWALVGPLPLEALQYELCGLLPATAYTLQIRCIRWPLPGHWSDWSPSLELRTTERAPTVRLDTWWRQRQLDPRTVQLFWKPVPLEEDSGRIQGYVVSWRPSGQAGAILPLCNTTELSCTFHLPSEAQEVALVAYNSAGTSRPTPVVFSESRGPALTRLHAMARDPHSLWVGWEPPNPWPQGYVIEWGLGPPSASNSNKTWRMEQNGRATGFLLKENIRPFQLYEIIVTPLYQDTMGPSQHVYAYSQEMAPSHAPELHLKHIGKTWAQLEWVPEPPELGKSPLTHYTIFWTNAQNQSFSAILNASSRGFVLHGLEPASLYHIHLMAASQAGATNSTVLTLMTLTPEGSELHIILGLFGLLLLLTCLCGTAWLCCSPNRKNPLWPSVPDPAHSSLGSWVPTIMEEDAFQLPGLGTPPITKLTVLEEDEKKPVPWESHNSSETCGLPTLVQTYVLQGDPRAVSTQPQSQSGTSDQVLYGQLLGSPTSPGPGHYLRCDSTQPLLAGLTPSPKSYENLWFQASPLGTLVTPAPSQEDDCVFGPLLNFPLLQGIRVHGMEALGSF

B1: Armlupeg (Lupin’s Pegfilgrastim) (ligand, human)
chain: MTPLGPASSLPQSFLLKCLEQVRKIQGDGAALQEKLCATYKLCHPEELVLLGHSLGIPWAPLSSCPSQALQLAGCLSQLHSGLFLYQGLLQALEGISPELGPTLDTLQLDVADFATTIWQQMEELGMAPALQPTQGAMPAFASAFQRRAGGVLVASHLQSFLEVSYRVLRHLAQP
modifications: 20 kDa monomethoxy polyethylene glycol (PEG) covalently bound to the N-terminal methionine residue
notes: N-terminal methionine residue of filgrastim, named in words; it carries the PEG; Filgrastim: recombinant human granulocyte colony-stimulating factor (G-CSF), 175 amino acids with the N-terminal methionine; 18 lots were used for SPR; also called proposed biosimilar; source: Armlupeg drug product lots (Lupin Limited)
As for B1, the equilibrium dissociation constant (Kd) lay within 51.2 to 118 pM.
